# Test results taken from patent US20250382359A1 (BYOMASS, published 2025).
# Residue numbers refer to the chain shown, from its start. Where “and” joins values, the source holds several entries; their conditions need not be identical. Equal entries are not always repeated.
# T1: GDF15 (ligand used in the GFRAL/RET cell assays) (UniProt Q99988 197-308, limits assumed)
# T1 sequence (looked up): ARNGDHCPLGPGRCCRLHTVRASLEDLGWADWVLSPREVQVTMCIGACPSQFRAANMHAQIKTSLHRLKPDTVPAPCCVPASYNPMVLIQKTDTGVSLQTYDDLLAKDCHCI
# T2: GDNF (UniProt P39905 78-211)
# T2 sequence (looked up): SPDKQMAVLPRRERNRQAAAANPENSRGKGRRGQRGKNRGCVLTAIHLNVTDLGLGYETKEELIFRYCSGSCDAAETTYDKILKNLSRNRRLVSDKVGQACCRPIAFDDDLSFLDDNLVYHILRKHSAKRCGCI
# T3: GDF10 (UniProt P55107 369-478)
# T3 sequence (looked up): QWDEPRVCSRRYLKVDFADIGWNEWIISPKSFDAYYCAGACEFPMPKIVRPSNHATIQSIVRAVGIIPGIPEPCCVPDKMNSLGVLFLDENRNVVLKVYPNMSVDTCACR
# T4: Human GDF15 Fc (human, UniProt Q99988 195-308, limits assumed, biotinylated (EZ-Link Sulfo-NHS-Biotinylation Kit) in the SPR assay)
# T4 construct: also called human GDF15-Fc fusion; biotinylated Human GDF15 Fc; not shown: Fc part
# T4 sequence: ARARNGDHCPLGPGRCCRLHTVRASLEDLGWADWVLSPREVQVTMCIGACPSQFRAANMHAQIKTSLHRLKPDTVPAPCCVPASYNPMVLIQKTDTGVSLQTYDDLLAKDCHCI
# T5: Human Activin B (human, UniProt P09529 293-407)
# T5 sequence (looked up): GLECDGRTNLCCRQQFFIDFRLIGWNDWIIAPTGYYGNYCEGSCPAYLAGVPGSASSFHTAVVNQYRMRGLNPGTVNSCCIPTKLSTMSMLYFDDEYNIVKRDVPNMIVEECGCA
# T6: Human BMP9 (human, UniProt Q9UK05 320-429)
# T6 sequence (looked up): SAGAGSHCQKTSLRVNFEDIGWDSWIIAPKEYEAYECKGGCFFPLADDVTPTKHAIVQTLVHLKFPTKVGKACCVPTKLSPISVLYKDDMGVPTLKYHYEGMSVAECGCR
# T7: Cyno GDF15 Fc (cyno, UniProt G7PWZ3 193-308, limits assumed)
# T7 construct: also called cyno GDF15-Fc fusion; not shown: Fc part
# T7 sequence: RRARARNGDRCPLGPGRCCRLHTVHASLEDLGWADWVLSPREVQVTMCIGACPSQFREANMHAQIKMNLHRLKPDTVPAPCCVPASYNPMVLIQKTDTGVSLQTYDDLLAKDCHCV
# T8: Mouse GDF15 Fc (mouse, UniProt Q9Z0J7 189-303, limits assumed)
# T8 construct: also called mouse GDF15-Fc fusion; not shown: Fc part
# T8 sequence (looked up): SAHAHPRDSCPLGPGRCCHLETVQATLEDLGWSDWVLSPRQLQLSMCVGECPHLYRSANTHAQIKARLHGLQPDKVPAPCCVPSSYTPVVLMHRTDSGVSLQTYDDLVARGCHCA
# B1: GDF15 antibody agent Clone B, IgG (antibody, V domains shown)
# VH: QVQLQESGPGLVKPSQTLSLTCTVSGGSISSGGIYWTWIRQHPGKGLEWIGAIAYSGSTYYNPSLKSRVTISVDTSKNQFSLKLSSVTAADTAVYYCARGIEYQHFDYWGQGTLVTVSS
# VL: not shown
# B2: GDF15 antibody agent Clone E, Fab (Fab, V domains shown)
# VH: QVQLVQSGAEVKKPGASVKVSCKASGYTFTSYGINWVRQAPGQGLEWMGWITAYSGDTNYAQKLQGRVTMTTDTSTSTAYMELRSLRSDDTAVYYCARGPGQYADVDVWGQGTMVTVSS
# VL: DIQMTQSPSSVSASVGDRVTITCRASQGISSWLAWYQQKPGKAPKLLIYAASSLQSGVPSRFSGSGSGTDFTLTISSLQPEDFATYYCQQANSFPITFGGGTKVEIK
# notes: Fab; CH1 and CL of the Fab not specified; also called Fab of Clone E
# B3: GDF15 antibody agent Clone I, Fab (Fab, V domains shown)
# VH: B2 VH with S31D, Y32E, N59V
# VL: B2 VL
# notes: Fab; CH1 and CL of the Fab not specified; also called Fab of Clone I
# B4: GDF15 antibody agent Clone H, Fab (Fab, V domains shown)
# VH: QVQLVQSGAEVKKPGSSVKVSCKASGGTFSSYYISWVRQAPGQGLEWMGGIAPISGTASYAQKFQGRVTITADESTSTAYMELSSLRSEDTAVYYCARGLAYDGYFDLWGRGTLVTVSS
# VL: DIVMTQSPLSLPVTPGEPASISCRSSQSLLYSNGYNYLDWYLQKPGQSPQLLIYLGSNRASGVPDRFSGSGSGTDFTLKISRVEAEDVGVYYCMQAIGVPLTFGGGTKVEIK
# notes: Fab; CH1 and CL of the Fab not specified; also called Fab of Clone H
# B5: GDF15 antibody agent Clone K, Fab (Fab, V domains shown)
# VH: QVQLVQSGAEVKKPGASVKVSCKASGYTFTNEGISWVRQAPGQGLEWMGWISAYTADTFYAQKLQGRVTMTTDTSTSTAYMELRSLRSDDTAVYYCARTRHDTSGLRFDYWGQGTLVTVSS
# VL: B2 VL with S30D, A91V, N92H
# notes: Fab; CH1 and CL of the Fab not specified; also called Fab of Clone K
# B6: GDF15 antibody agent Clone L, Fab (Fab, V domains shown)
# VH: B5 VH with T30A, N31S, E32Y, G33D, S35I, Y54L, T55S, A56G, F59V, L106I
# VL: B2 VL with S30D, A91V, N92H
# notes: Fab; CH1 and CL of the Fab not specified; also called Fab of Clone L
# B7: GDF15 antibody agent Clone M, Fab (Fab, V domains shown)
# VH: QVQLVQSGAEVKKPGASVKVSCKASGYTFDSYGINWVRQAPGQGLEWMGWISAYSGDTAYAQELQGRVTMTTDTSTSTAYMELRSLRSDDTAVYYCVRDTQYGGSPYWGQGTLVTVSS
# VL: EIVMTQSPATLSVSPGERATLSCRASQSVSSNLAWYQQKPGQAPRLLIYGASTRATGIPARFSGSGSGTEFTLTISSLQSEDFAVYYCQQYNNWPITFGGGTKVEIK
# notes: Fab; CH1 and CL of the Fab not specified; also called Fab of Clone M
# B8: GDF15 antibody agent Clone P, Fab (Fab, V domains shown)
# VH: QVQLVQSGAEVKKPGATVKVSCKASGYTFDSYGIHWVRQAPGQGLEWMGWITAYSGDTVYAQKLQGRVTMTTDTSTSTAYMELRSLRSDDTAVYYCARESGQTSSALGPWGQGTLVTVSS
# VL: B2 VL with S31R, A91G, N92A, I96L
# notes: Fab; CH1 and CL of the Fab not specified; also called Fab of Clone P
# B9: GDF15 antibody agent Clone R, IgG (antibody, V domains shown)
# VH: B1 VH with K66E
# VL: not shown
# B10: GDF15 antibody agent Clone S, Fab (Fab, V domains shown)
# VH: B2 VH
# VL: B2 VL with M4L, S31P
# notes: Fab; CH1 and CL of the Fab not specified; also called Fab of Clone S
# B11: GDF15 antibody agent Clone T, Fab (Fab, V domains shown)
# VH: B2 VH
# VL: B2 VL with N92S, S93Q
# notes: Fab; CH1 and CL of the Fab not specified; also called Fab of Clone T
# B12: GDF15 antibody agent Clone O, Fab (Fab, V domains shown)
# VH: B8 VH with Y32L, I34M, H35S, W50Y, T52S, A53T, T103Q, S104V, G108D
# VL: B2 VL with S31R, A91G, N92A, I96L
# notes: Fab; CH1 and CL of the Fab not specified; also called Fab of Clone O
# Biological target: T1, GDF15 (ligand used in the GFRAL/RET …)
# Assay: cell-based or functional assay
Binder,GDF15-GFRAL RET pERK IC50 (pM),GDF15-GFRAL-RET Luciferase IC50 (pM),GDF15 GFRAL RET pERK Fab IC50 pM
B1,104,66.2,–
B2,–,–,46.7 pM
B3,–,–,111 pM
B4,–,–,24.6 pM
B5,–,–,169 pM
B6,–,–,2.1 µM
B7,–,–,1370 pM
B8,–,–,701 pM and 1000 pM

# Biological target: T2, GDNF
# Assay: BLI Octet; IgG on sensor
row,Binder,binding result
1,B1,no binding (tested: 100 nM)
2,B9,no binding (tested: 100 nM)

# Biological target: GDF8 (UniProt O14793 267-375)
# Assay: BLI Octet; IgG on sensor
row,Binder,binding result
1,B1,no binding (tested: 100 nM)
2,B9,no binding (tested: 100 nM)

# Biological target: T3, GDF10
# Assay: BLI Octet; IgG on sensor
row,Binder,binding result
1,B1,no binding (tested: 100 nM)
2,B9,no binding (tested: 100 nM)

# Biological target: T9, GDF11 (UniProt O95390 299-407)
# T9 construct: Also used as ligand in the Activin 2B receptor/SMAD reporter assay
# Assay: BLI Octet; IgG on sensor
# T9 sequence (O95390 299-407 limits assumed): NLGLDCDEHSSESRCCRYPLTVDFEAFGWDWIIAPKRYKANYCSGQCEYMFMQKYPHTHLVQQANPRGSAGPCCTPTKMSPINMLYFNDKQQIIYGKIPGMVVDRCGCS
row,Binder,binding result
1,B1,no binding (tested: 100 nM)
2,B9,no binding (tested: 100 nM)

# Biological target: T4, Human GDF15 Fc
# Assay: BLI Octet; IgG on sensor, 100 nM antigen (avid)
# Method: Briefly, ForteBio affinity measurements were performed by loading IgGs on-line onto AHC sensors. Sensors were equilibrated off-line in assay buffer for 30 min and then monitored on-line for 60 seconds for baseline establishment. Sensors with loaded IgGs were exposed to 100 nM antigen for 3 minutes, and afterwards were transferred to assay buffer for 3 min for off-rate measurement. All kinetics were analyzed using the 1:1 binding model.
row,Binder,Kd [nM]
1,B1,0.26

# Biological target: T5, Human Activin B
# Assay: BLI Octet; IgG on sensor, 100 nM antigen (avid)
row,Binder,Kd [nM]
1,B1,145
2,B9,188

# Biological target: T6, Human BMP9
# Assay: BLI Octet; IgG on sensor, 100 nM antigen (avid)
row,Binder,binding result
1,B1,binds
2,B9,binds

# Biological target: T4, Human GDF15 Fc
# Assay: BLI Octet; antigen on sensor, 100 nM Fab (monovalent)
row,Binder,Kd [nM]
1,B2,0.921
2,B3,1.25
3,B10,0.48
4,B11,0.613
5,B4,1.24
6,B5,2.11
7,B6,1.58
8,B7,3.88
9,B12,0.016
10,B8,3.68

# Biological target: T7, Cyno GDF15 Fc
# Assay: as above
row,Binder,Kd [nM]
1,B2,0.413
2,B3,1.38
3,B10,0.252
4,B11,0.369
5,B4,1.42
6,B5,2.4
7,B6,1.56
8,B7,1.91
9,B12,0.077
10,B8,1.72

# Biological target: T8, Mouse GDF15 Fc
# Assay: as above
row,Binder,Kd [nM]
1,B2,3.08
2,B3,1.45
3,B10,1.36
4,B11,1.92
5,B4,50.9
6,B5,333
7,B6,229
8,B7,31.4
9,B12,1.6

# Biological target: T4, Human GDF15 Fc
# Assay: SPR Biacore 8K; biotinylated antigen captured, Fab analyte
# Method: Kinetic analysis was conducted at 25° C. in HBS-EP+running buffer (10 mM HEPES pH 7.4, 150 mM NaCl, 3 mM EDTA, 0.05% Surfactant P20) using a Biacore 8K optical biosensor (Cytiva, Marlborough, MA). The sample compartment was maintained at 10° C. for the duration of the experiment. The Biacore 8K can analyze up to 8 separate interactions in a single cycle.
# Each experiment cycle began with an injection (300 s at 2 μL/min) overflow cells 1 and 2 of a 1:100 solution of biotin CAPture reagent (Cytiva) in running buffer. This was followed by an injection (45 s at 10.0 μL/min) of biotinylated human GDF15 (5 nM) overflow cell 2. […] The dissociation of the antibodies were monitored for 3420 s. Finally, an injection (120 s at 10 μL/min) of regeneration solution (6 M Guanidine-HCl in 0.25 M NaOH) overflow cells 1 and 2 prepared the sensor surface for another cycle. Several blank buffer samples were injected (300 s at 30 μL/min) overflow cells 1 and 2 throughout the duration of the experiment and used for reference surface subtraction—each were monitored for the same amount of dissociation time (3420 s) and regenerated under the same conditions as those for the Fab sample injections.
Binder,Kd [nM],koff [s⁻¹],kon [M⁻¹ s⁻¹]
B2,0.0331,8.71e-05,2.63e+06
B3,0.0672,0.000259,3.85e+06
B10,0.0369,4.93e-05,1.34e+06
B11,0.0411,4.52e-05,1.1e+06
B4,0.117,0.000735,6.29e+06
B5,0.23,0.00112,4.87e+06
B6,0.144,0.000576,3.99e+06
B7,0.599,0.00191,3.2e+06
B12,0.0341,7.11e-05,2.08e+06
B8,0.126,0.0021,1.66e+07
